Results published in paper PMC11555413 (Nature Communications, 2024).

B1: Myc-APRIL (ligand, UniProt O75888 116-250, looked up)
chain: SVLHLVPINATSKDDSDVTEVMWQPALRRGRGLQAQGYGVRIQDAGVYLLYSQVLFQDVTFTMGQVVSREGQGRQETLFRCIRSMPSHPDRAYNSCYSAGVFHLHQGDILSVIIPRARAKLNLSPHGTFLGFVKL
B2: APRIL-Myc (ligand, UniProt O75888 116-250, looked up)
chain: B1 chain

Target: the molecule itself
Experiment: SEC

| Protein | stoichiometry N |
| --- | --- |
| B1 | 3 |
| B2 | 3 |
